Legend:
[1] = test system: BxPC3 cells; experiment: BxPC3 Transwell migration in response to rhDKK3; type: cell-based, human; conditions: BxPC3, rhDKK3 10 μg/ml, 48 hours
Experimental: HPSCs and BxPC3 cells were treated with DKK3 mAb clones JM6-6-1 and JM8-12-1 or isotype control mAb or PBS. (FIGS. 5A-B) HPSC apoptosis and migration as measured by FACS and Transwell migration assay at 48 hours. (FIG. 5C) BxPC3 migration in response to rhDKK3 10 μg/ml as measured by Transwell migration assay at 48 hours. (FIG. 5D) BxPC3 resistance to gemcitabine 100 μM as measured by MTS proliferation assay at 6 days. HPSC-CM, pancreatic stellate cell conditioned media, 10 μg/ml. The orthotopic co-injection BxPC3+ HPSC model of PDAC was used to test the efficacy of DKK3 mAb clones JM6-6-1 or JM8-12-1 (5 mg/kg i.p. once every 5 days). (FIG. 5E) Overall tumor progression was measured every 3-4 days by IVIS imaging. (FIG. 5F) Metastatic tumors in the peritoneal cavity after removal of the primary pancreatic tumor are shown by IVIS imaging. (FIG. 5G) Kaplan Meier survival curve showing mice treated with DKK3 mAb clone JM8-12 (right-most line), control mAb (middle line), or PBS (left-most line). (FIG. 5H) KPC mice (P48-Cre; Kras LSL-G12D;Trp53fl/fl) with either wild type DKK3 (solid lines) or deficient in DKK3 (“DKK3-KO,” dashed lines) were treated with DKK3 mAb JM6-6-1 (5 mg/kg i.p. once every 5 days), PBS or control mAb. […]
Cell-based assays. Cell proliferation was measured by the MTS assay (Promega, Madison, Wis.). […]

[2] = test system: BxPC3 orthotopic tumors; experiment: Orthotopic BxPC3 tumors without HPSCs in nude mice; type: in vivo, mouse; conditions: BxPC3 alone; 5 mg/kg i.p. once every 5 days; vs PBS or isotype control mAb
Experimental: FIGS. 11A-C. DKK3 expression in autochthonous model of PDAC and effects of DKK3 mAb on cell surface binding of DKK3 and orthotopic model. (FIG. 11A) DKK3 expression was measured by qPCR in pancreatic tumors from P48-Cre; Kras LSL-G12D;Trp53fl/fl and P48-Cre; Kras LSL-G12D;Trp53fl/+ mice that are either wild type DKK3 or heterozygous or homozygous DKK3-null. Relative expression of DKK3 mRNA in DKK3+/− hetero mice is 53% of DKK3^+/+ mice. (FIG. 11B) DKK3 cell surface binding was assessed by incubating BxPC3 or L3.6p1 cells with His-tagged rhDKK3 (10 μg/ml) with or without JM6-6-1 (70 μg/ml) and positive cells were sorted by flow cytometry. (FIG. 11C) Mice bearing orthotopic BxPC3 tumors were treated with DKK3 mAb JM6-6-1 (5 mg/kg i.p. once every 5 days). Overall tumor progression was measured every 3-4 days by IVIS imaging.
An orthotopic nude mouse model of PDAC using BxPC3 cancer cells labeled with firefly luciferase (BxPC3-FL) co-injected with HPSCs has been previously described (Hwang et al., 2008). Mice received intrapancreatic injections of BxPC3-FL (1×10^6 per mouse) with HPSC-shControl or HPSC-shDKK3 in a tumor-to-stroma ratio of 1:0 or 1:3 in 50-μL of HBSS and tumor growth was monitored using IVIS imaging (Hwang et al., 2008). In addition, a syngeneic immunocompetent DKK3 null model was used, provided by Dr. C. […]

B1: JM6-6-1: monoclonal antibody against human DKK3; heavy chain variable SEQ ID NO: 19, light chain variable SEQ ID NO: 20 (antibody, V domains shown)
VH: EVKLVESGGGLVKPGGSLKLSCAASGFTFTIEYMAWIRQTPEKRLEWVASISSGGDDIYYADNVKGRFTISRDNAKNTLYLQMSSLKSEDTAIYYCSRSLSDWGQGTTLTVSSAKTTPPSDYPLA
VL: MTQTPLSLPVSLGDQASISCRSSQSILHSNGHTYLEWYLQKPGQSPKLLIYKVSNRFSGVPDRFSGSGSGTDFTLKISRVEAEDLGVYYCFQGSHVPFTFGSGTKLEIERADAAQ
- effect on DKK3-mediated induction of migration [1]: reverse the DKK3-mediated induction of migration
- tumor response without HPSCs [2]: no significant change

Reference: US20210340232A1, “MONOCLONAL ANTIBODIES AGAINST HUMAN DICKKOPF3 AND USES THEREOF” (Board of Regents, The University of Texas System, priority 2018, published 2021)
